Results taken from patent US7105306 (University of Pennsylvania, dated 2006).

Molecular target: prolactin (PRL), human, untagged (serum PRL; PRL used in cell cultures) (human, UniProt P01229)
Assay: cell-based or functional assay

B1: His-tagged cyclophilin B (CypB), recombinant, purified from Drosophila S2 cells (enzyme, not shown: small tags and cut ends)
chain: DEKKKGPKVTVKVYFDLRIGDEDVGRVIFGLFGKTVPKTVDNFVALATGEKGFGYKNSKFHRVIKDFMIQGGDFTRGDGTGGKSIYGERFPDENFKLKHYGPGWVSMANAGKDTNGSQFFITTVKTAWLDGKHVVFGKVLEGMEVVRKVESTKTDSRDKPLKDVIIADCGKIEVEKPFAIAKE
PRL-driven growth of Nb2 cells (3H-thymidine): ≤ 8 fold
